Test results: patent US20220194996A1

B1: Pro(Sol)-6C fusion protein, produced in L. lactis (protein)
chain: EYVDEKERQGEIYPFGDEEEKDEGGESFTYEKSEVDKTDLFKFIEGGEGDDVYKVDGSKVLLDDDTISRVSKKHTARDGEYGEYGEAVEDGENVIKIIRSVLQSGALPSVGVDELDKIDLSYETTESGDTAVSEDSYDKYASNNTNKEKESGSVSSEQLAQFRSLDEKKVIHGCNFSSNVSSKHTFTDSLDISLVDDSAHISCNVHLSEPKYNHLVGLNCPGDIIPDCFFQVYQPESEELEPSNIVYLDSQINIGDIEYYEDAEGDDKIKLFGIVGSIPKTTSFTCICKKDKKSAYMTVTIDSA
B2: Pro(Flex2)-6C fusion protein, produced in L. lactis (protein)
chain: EYVDEKERQGEIYPFGDEEEKDEGGESFTYEKSEVDKTDLFKFIEGGEGDDVYKVDGSKVLLDDDTISRVSKKHTARDGEYGEYGEAVEDGENVIKIIRSVLQSGALPSVGVDELDKIDLSYETTESGDTAVSEDSYDKYASNNTNKEGGGGSGGGGSGGGGSEKKVIHGCNFSSNVSSKHTFTDSLDISLVDDSAHISCNVHLSEPKYNHLVGLNCPGDIIPDCFFQVYQPESEELEPSNIVYLDSQINIGDIEYYEDAEGDDKIKLFGIVGSIPKTTSFTCICKKDKKSAYMTVTIDSA
B3: Pro(CsLNK)-6C fusion protein, produced in L. lactis (protein)
chain: EYVDEKERQGEIYPFGDEEEKDEGGESFTYEKSEVDKTDLFKFIEGGEGDDVYKVDGSKVLLDDDTISRVSKKHTARDGEYGEYGEAVEDGENVIKIIRSVLQSGALPSVGVDELDKIDLSYETTESGDTAVSEDSYDKYASNNTNKENMPNDPNRNVDENANANSAVKNNNNEEEKKVIHGCNFSSNVSSKHTFTDSLDISLVDDSAHISCNVHLSEPKYNHLVGLNCPGDIIPDCFFQVYQPESEELEPSNIVYLDSQINIGDIEYYEDAEGDDKIKLFGIVGSIPKTTSFTCICKKDKKSAYMTVTIDSA

What follows are binders tested against rat mAb 45.1 (against Pfs48/45 conformational epitope I).
B1 was tested, and the % of folding was 90%.
For B2, the % of folding was 100%.
B3 showed a % of folding of 75%.
